According to patent US10822723B2, “Fusion protein crystal comprising a moiety” (Agency for Science, Technology and Research, priority 2015, dated 2020):

Tests used:
PAK4cat = molecular target: T1, PAK4cat (Homo sapiens, UniProt O96013); experiment: In vitro kinase assay, phosphorylation of GST-Raf13 by PAK4cat; format: biochemical; conditions: FIG. 1c
T1 construct: PAK1 (1-545) and PAK4 (286-591), respectively; 6His (N); made in house; host or cells: Escherichia coli BL21-CodonPlus(DE3)
Procedure: (§1) Purified PAK1 or PAK4 (50 nM in 25-50 μl) were incubated with 10 μM GST-Raf1S338 peptide in 10 μM ATP (2 μCi of γ32P ATP) of kinase buffer (25 mM Hepes, pH 7.3, 0.1% Triton-X100, 50 mM KCl, 10 mM MgCl2, 1 mM DTT) at 30° C. for 20 min. Samples were analysed by SDS-polyacrylamide gel electrophoresis, or adsorption of the GST substrate mix onto PVDF membranes, followed by extensive washing to remove free γ32P-ATP. The synthetic peptides of 95% purity, as determined by HPLC and MS analyses (GenScript), were soluble in aqueous PBS. Stock solutions (10 mM) were quantified via calculated extinction coefficients and absorbance measurements at 280 nm and stored at −80° C. The diluted peptides were incubated at the indicated concentrations with the kinase on ice (10 min) before addition of γ32P ATP and subsequent incubation at 30° C. The synthetic peptide array (Jerini Biotools) was phosphorylated in situ as described previously.

PAK1 = PAK1 (Homo sapiens, UniProt Q13153); experiment: In vitro kinase assay, phosphorylation of GST-Raf13 by 6His-PAK1 (activated); format: biochemical; conditions: FIG. 1c
Chain of PAK1 (Q13153 whole entry): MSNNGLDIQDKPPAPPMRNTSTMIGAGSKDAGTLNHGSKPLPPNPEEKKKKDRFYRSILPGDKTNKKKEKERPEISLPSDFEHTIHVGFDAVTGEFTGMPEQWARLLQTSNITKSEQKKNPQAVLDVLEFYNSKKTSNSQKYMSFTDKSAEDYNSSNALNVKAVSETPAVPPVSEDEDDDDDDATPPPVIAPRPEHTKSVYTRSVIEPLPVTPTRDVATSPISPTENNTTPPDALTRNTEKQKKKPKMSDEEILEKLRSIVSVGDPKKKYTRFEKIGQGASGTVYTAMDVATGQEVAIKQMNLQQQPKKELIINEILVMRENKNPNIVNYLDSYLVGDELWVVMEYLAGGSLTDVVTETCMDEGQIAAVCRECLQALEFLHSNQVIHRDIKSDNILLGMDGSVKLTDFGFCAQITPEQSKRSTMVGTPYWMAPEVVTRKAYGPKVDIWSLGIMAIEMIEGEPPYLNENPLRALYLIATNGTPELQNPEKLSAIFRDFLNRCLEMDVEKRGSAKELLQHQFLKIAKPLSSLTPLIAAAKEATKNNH
Procedure: as §1

[1] = molecular target: T2, GFP-Inka1:Flag-PAK4cat crystal (Homo sapiens, UniProt O96013); experiment: Live cell imaging of GFP-Inka1:PAK4cat crystal growth; format: cell-based; conditions: 5 μM, FIG. 6d
T2 construct: the kinase catalytic domain of human PAK4 (278-591); expressed in transfected cells
T2 sequence (O96013 278-591): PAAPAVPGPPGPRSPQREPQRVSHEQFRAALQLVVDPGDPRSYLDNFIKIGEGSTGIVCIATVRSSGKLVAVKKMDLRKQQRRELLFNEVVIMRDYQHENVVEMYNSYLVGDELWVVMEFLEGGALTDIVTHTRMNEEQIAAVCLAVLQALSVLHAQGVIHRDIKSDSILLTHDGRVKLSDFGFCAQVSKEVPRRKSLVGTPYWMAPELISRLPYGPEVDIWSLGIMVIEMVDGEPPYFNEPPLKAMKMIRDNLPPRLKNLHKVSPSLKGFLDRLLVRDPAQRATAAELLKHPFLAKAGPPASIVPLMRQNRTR
Procedure: The cells were plated at 50% confluence glass cover slips overnight: plasmid transfection used GFP-iBox-Pak4cat and FLAG-iBox-Pak4cat constructs at a ratio of 4:1 to promote crystal nucleation. The cover slips were transferred to a Chamlide magnetic chamber (Live cell instruments, Seoul, Korea) with 5% CO2 at 37° C. for live imaging on an Zeiss Axiovert 200M Live Cell Imaging with a 10× objective. We imaged multiple chosen regions for 8 hours at 6 min intervals. To measure crystal growth rate, we used instead a Nikon Eclipse Ti microscope equipped with spinning disk confocal attachment (Yokogawa CSU-22 module) to avoid photo-damage. The cells were imaged at 60×1.4 NA objective at 2 min intervals. For SIM and confocal imaging, cells were fixed in non-hardening mounting media (Vectashield). The slides were imaged by Delta vision OMX SIM with a 100×1.4 NA objective. Confocal imaging used an Olympus FV1000 upright system with 60×1.42NA objective. The 3D stacks were analyzed by IMARIS software.

T1 sequence (O96013 286-591): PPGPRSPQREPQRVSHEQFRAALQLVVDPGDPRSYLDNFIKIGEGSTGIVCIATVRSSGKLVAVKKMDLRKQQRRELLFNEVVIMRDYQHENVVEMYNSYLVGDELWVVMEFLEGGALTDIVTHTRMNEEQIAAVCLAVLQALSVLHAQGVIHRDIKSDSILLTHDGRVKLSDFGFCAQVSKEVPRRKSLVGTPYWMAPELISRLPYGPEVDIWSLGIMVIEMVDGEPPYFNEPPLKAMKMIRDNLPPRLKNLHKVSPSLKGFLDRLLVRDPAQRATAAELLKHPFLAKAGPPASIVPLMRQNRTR

Molecule	PAK4cat inhibition in vitro (PAK4cat)	effect on PAK1 (PAK1)	GFP signal of co-crystals during the elongation phase ([1]; GFP-Inka1:HA-PAK4cat co-crystals)	crystal growth after drug addition ([1]; growing GFP-Inka1:Flag-PAK4cat crystal)
GST-iBox: recombinant 38 amino acid 'Inka box' (Inka1 residues 166-203) as GST fusion	potent	does not affect		
Cc1nc(Nc2[nH]nc3c2CN(C(=O)N[C@H](CN(C)C)c2ccccc2)C3(C)C)c2sccc2n1 [PF-03758309]			depleted of GFP signal	slowed
